Assay results as given in patent publication US20130078247A1.

Target: cynomolgus Ang2 (cynomolgus)
Assay: competition ELISA: cAng2 binding to cTie2

IC50 (read off the curve): 10 nM
B1: 00050 (VHH)
VHH: EVQLVESGGGLVQPGGSLRLSCAASGFTFDDYALGWFRQAPGKEREGVSCIRCSDGSTYYADSVKGRFTISSDNSKNTVYLQMNSLRPEDTAVYYCAASIVPRSKLEPYEYDAWGQGTLVTVSS
